Laboratory results published in PMC9968005, “Therapeutic Performance Evaluation of ^213Bi-Labelled Aminopeptidase N (APN/CD13)-Affine NGR-Motif ([^213Bi]Bi-DOTAGA-cKNGRE) in Experimental Tumour Model: A Treasured Tailor for Oncology” (Pharmaceutics, 2023).

Tests used:
[1] = LogP measurement of [205/206Bi]Bi-DOTAGA-cKNGRE (n-octanol/water); type: physicochemical; details: shake-flask n-octanol/water, 205/206Bi as surrogates for 213Bi, 10 µL tracer in saline + 0.49 mL water + 0.5 mL n-octanol, shaken 5 min, centrifuged 6000 rpm 5 min, gamma counter
Experimental: For the determination of LogP value we used ^205/206Bi isotopes as surrogates which were produced by GE PETtrace cyclotron using the method described by Lagunas-Solar et al.. The radiolabelling of the precursor was carried out as follows: 50 µL of 3 M NH4OAc buffer (pH 4) and 15 µL of 6 mM DOTAGA-cKNGRE aqueous solution were added to 50 µL [^205/206Bi]BiCl3 in 0.1 M HCl. The labelled complex was purified as described above. Then 10 µL of the purified [^205/206Bi]Bi-DOTAGA-cKNGRE in physiological saline (Salsol, TEVA, Debrecen, Hungary) was diluted with 0.49 mL water. It was then mixed with 0.5 mL n-octanol in a vial and shaken for 5 min. After centrifugation (6000 rpm, 5 min) the radioactivity of the sample from both the aqueous and n-octanol phase was measured with a Perkin Elmer Packard Cobra gamma counter. The LogP value was −2.59.

[2] = Serum stability of [205/206Bi]Bi-DOTAGA-cKNGRE; type: in vitro ADME; details: mouse plasma (heading says serum); 50 µL tracer in saline + 50 µL mouse plasma, 90 min, radio-iTLC; read-out: RCP after 90 min incubation in serum
Experimental: Fifty μL of [^205/206Bi]Bi-DOTAGA-Bn-cKNGRE in physiological saline (Salsol, TEVA, Debrecen, Hungary) was added to the solution of fifty μL of mouse plasma. The RCP of the samples was determined by radio-iTLC at 0, 30, 60 and 90 min time points using the same method as described above. After 90 min the [^205/206Bi]Bi-DOTAGA-Bn-cKNGRE remained intact as the RCP of the sample taken from the mixture was above 95%, which meets the requirements for ^213Bi-labelled radiopharmaceuticals.

HT1080 fibrosarcoma = experiment: Cancer treatment study: tumour volume; type: in vivo, CB17 SCID mice; details: approximately 5 MBq i.p. on days 7, 8, 10, 12, calliper, mean ± SD
Experimental: (§1) Experimental tumour induction was carried out under inhalation anaesthesia with a dedicated small animal anaesthesia device (Tec3 Isoflurane Vaporizer, Eickemeyer Veterinary Equipment, Luton, UK) applying 3% isoflurane (Forane, AbbVie, Chicago, IL, USA), 0.4 L/min O2 and 1.4 L/min N2O. This was followed by depilation and disinfection subcutaneous (s.c.) inoculation of 1.5 × 10^6 HT1080 (human fibrosarcoma) cells in 100 μL (1/3 part of Matrigel and 2/3 part of saline) into the left shoulder area of the CB17 SCID mice. For tumour verification the study mice underwent in vivo [^68Ga]Ga-DOTAGA-cKNGRE-based PET imaging 10 ± 1 days post tumour cell inoculation. To evaluate the organ distribution pattern of the ^213Bi-labelled therapeutic peptide compounds, ex vivo biodistribution studies were also executed 10 ± 1 days following the HT1080 cell transplantation at an average tumour volume of 155 ± 20 mm^3. Thereafter, tumour sizes based on the largest and the smallest tumour diameters were registered ((largest diameter × smallest diameter^2)/2). We used calliper measurements for tumour growth determination.
Seven days after HT1080 cell inoculation the tumour-bearing animals were randomly classified into two subgroups: treatment-naïve group (control, n = 8) and [^213Bi]Bi-DOTAGA-cKNGRE-treated group (treated, n = 8). Approximately 5 MBq [^213Bi]Bi-DOTAGA-cKNGRE was intraperitoneally (i.p.) administered to the experimental mice of the treated cohort on the 7th, 8th, 10th and 12th experimental days. The control mice were i.p. injected with 150 μL saline solution applying the same time regime.
On the 7th, 8th, 10th and 12th days of the investigation at an average tumour volume of 26.56 ± 2.39 mm^3 CB17 SCID mice bearing HT1080 fibrosarcoma in their left shoulder area were i.p. injected with approximately 5 MBq [^213Bi]Bi-DOTAGA- cKNGRE. The treatment-naïve study mice i.p. received 150 μL saline solution on the same experimental days. In a bid to assess the therapeutic efficacy of the investigated probe, body weights (BW, expressed in grams/g ± SD) and tumour volume (mm^3 ± SD) of the small animals were registered. Calliper measurements were applied to evaluate tumour development.

in vivo = experiment: in vivo; parameters: species or system CB17 SCID mice; details: CB17 SCID, mouse, 5 MBq, total radioactivity
Experimental: as §1
To assess the organ distribution of [^213Bi]Bi-DOTAGA-cKNGRE, ex vivo investigations were performed. The HT1080 fibrosarcoma-bearing experimental mice were anaesthetised with Forane (5%) and were sacrificed at 30 and 90 min post administration of the radiopharmaceutical. After autopsy, selected tissues, organs and the tumour itself were removed, weighed wet and their radioactivity was measured on a calibrated gamma counter (Perkin-Elmer Packard Cobra, Waltham, MA, USA). Then, the activity was decay corrected to the time of the injection. The percent of administered dose per gram of tissue (%ID/g) was determined for all samples from the counts per minute values (CPM). We presented the ex vivo data as mean %ID/g ± SD.

[3] = tested on: CD13pos. HT1080 fibrosarcoma; details: mouse, in vivo; cited from earlier work
Experimental: The tumour-targeting potential of [^213Bi]Bi-DOTAGA-cKNGRE was also evaluated in HT1080 tumour-bearing CB17 mice. […] Although the tumourous tracer activity decreased from 30 to 90 min post-administration, relatively higher accumulation of the HT1080 neoplasms compared with the other organs at 90 min time point yields better tumour-to-background (T/M) ratios and image contrast. The tumour-to-organs ratio is ...

Molecule: N=C(N)NCCC[C@@H]1NC(=O)CNC(=O)[C@H](CC(N)=O)NC(=O)[C@H](CCCCNC(=S)Nc2ccc(CNC(=O)CCC(C(=O)O)N3CCN(CC(=O)O)CCN(CC(=O)O)CCN(CC(=O)O)CC3)cc2)NC(=O)CC[C@@H](C(N)=O)NC1=O (some centres unmarked) [[^205/206Bi]Bi-DOTAGA-cKNGRE]
- LogP value [1]: −2.59
- remaining at 1.5 h [2]: > 95%

Molecule: N=C(N)NCCC[C@@H]1NC(=O)CNC(=O)[C@H](CC(N)=O)NC(=O)[C@H](CCCCNC(=S)Nc2ccc(CNC(=O)CCC(C(=O)O)N3CCN(CC(=O)O)CCN(CC(=O)O)CCN(CC(=O)O)CC3)cc2)NC(=O)CC[C@@H](C(N)=O)NC1=O (some centres unmarked) [[^213Bi]Bi-DOTAGA-cKNGRE, metal not drawn]
- tumour volume (HT1080 fibrosarcoma; day 7): 28.25 ± 2.67 mm^3
- tumour volume (HT1080 fibrosarcoma; day 8): 23.33 ± 6.87 mm^3
- tumour volume (HT1080 fibrosarcoma; day 9, p ≤ 0.01 vs untreated): 35.36 ± 7.57 mm^3
- tumour volume (HT1080 fibrosarcoma; day 10, p ≤ 0.01 vs untreated): 58.33 ± 14.36 mm^3
- tumour volume (HT1080 fibrosarcoma; day 12, p ≤ 0.01 vs untreated): 112.50 ± 18.42 mm^3
- tissue uptake at 0.5 h (in vivo; HT1080 tumor): 1.48 ± 0.18 %ID/g
- tissue uptake at 1.5 h (in vivo; HT1080 tumor): 0.8 ± 0.16 %ID/g
- tissue uptake at 0.5 h (in vivo; blood): 2.72 ± 0.22 %ID/g
- tissue uptake at 0.5 h (in vivo; bone (femur)): 0.69 ± 0.38 %ID/g
- tissue uptake at 0.5 h (in vivo; fat): 0.72 ± 0.05 %ID/g
- tissue uptake at 0.5 h (in vivo; kidney): 11.4 ± 1.41 %ID/g
- tissue uptake at 1.5 h (in vivo; kidney): 4.51 ± 1.21 %ID/g
- tissue uptake at 0.5 h (in vivo; lung): 2.09 ± 0.74 %ID/g
- tissue uptake at 1.5 h (in vivo; muscle): 0.06 ± 0.02 %ID/g
- tissue uptake at 0.5 h (in vivo; pancreas): 0.57 ± 0.18 %ID/g
- tissue uptake at 1.5 h (in vivo; pancreas): 0.08 ± 0.03 %ID/g
- tissue uptake at 0.5 h (in vivo; stomach): 0.73 ± 0.04 %ID/g

Molecule: ^68Ga-NOTA-Gly3-CNGRC [[^68Ga]Ga-NOTA-G3-NGR, ^68Ga-tagged CD13-affine peptide derivate, literature PET tracer]
- tumour accumulation [3]: 4.96 ± 3.18 ID%/g
